This is an account of results in paper PMC4974525.

The assay has as its target African cassava mosaic virus (ACMV) capsid protein expressed in fission yeast (African cassava mosaic virus (ACMV-[Nigeria-Ogo])). As to the kind of experiment: SDS-PAGE with Western blot.

Usually stoichiometry N stands for the number of molecules, sites or subunits per partner or assembly. For the substance “African cassava mosaic virus (ACMV) capsid protein expressed in fission yeast (natural protein)”, the stoichiometry N turned out to be 2.
